Results: publication PMC9663308, “AAA+ protease-adaptor structures reveal altered conformations and ring specialization” (Nature Structural & Molecular Biology, 2022)
Ends that are not written are not given here.

B1: ClpS adaptor (natural protein, E. coli)
chain: MGKTNDWLDFDQLAEEKVRDALKPPSMYKVILVNDDYTPMEFVIDVLQKFFSYDVERATQLMLAVHYQGKAICGVFTAEVAETKVAMVNKYARENEHPLLCTLEKA
notes: ClpS, E. coli, ~10 kDa; N-terminal extension (NTE) res; 2–26 and core domain res; 27–106; The NTE (res. 2–26) and the core (res. 27–106) are both spoken of, so the whole protein is likely; also called native ClpS; source: E. coli BL21(DE3), purified as described for His6-SUMO-fusion proteins
B2: ClpP-His6, 14-mer (enzyme)
chain: not shown
notes: ClpP peptidase, E. coli; The atomic models hold one heptameric ClpP ring; also called ClpP14; ClpP7 ring; copies: 14
B3: LLYVQRDSKEC-fluorescein N-degron synthetic peptide (peptide)
peptide: LLYVQRDSKEC-fluorescein
modifications: not fully specified (residue 11); printed as LLYVQRDSKEC-fluorescein
notes: synthetic N-degron peptide, molecular weight 1779.9 g/mol; also called fluorescein-labeled N-degron peptide; N-degron peptide; source: synthetic peptide (21st Century Biochemicals)
B4: ClpA (laboratory 'wild-type' ClpA carrying M169T), hexamer (enzyme, E. coli, UniProt P0ABH9 1-758, looked up)
chain: MLNQELELSLNMAFARAREHRHEFMTVEHLLLALLSNPSAREALEACSVDLVALRQELEAFIEQTTPVLPASEEERDTQPTLSFQRVLQRAVFHVQSSGRNEVTGANVLVAIFSEQESQAAYLLRKHEVSRLDVVNFISHGTRKDEPTQSSDPGSQPNSEEQAGGEERTENFTTNLNQLARVGGIDPLIGREKELERAIQVLCRRRKNNPLLVGESGVGKTAIAEGLAWRIVQGDVPEVMADCTIYSLDIGSLLAGTKYRGDFEKRFKALLKQLEQDTNSILFIDEIHTIIGAGAASGGQVDAANLIKPLLSSGKIRVIGSTTYQEFSNIFEKDRALARRFQKIDITEPSIEETVQIINGLKPKYEAHHDVRYTAKAVRAAVELAVKYINDRHLPDKAIDVIDEAGARARLMPVSKRKKTVNVADIESVVARIARIPEKSVSQSDRDTLKNLGDRLKMLVFGQDKAIEALTEAIKMARAGLGHEHKPVGSFLFAGPTGVGKTEVTVQLSKALGIELLRFDMSEYMERHTVSRLIGAPPGYVGFDQGGLLTDAVIKHPHAVLLLDEIEKAHPDVFNILLQVMDNGTLTDNNGRKADFRNVVLVMTTNAGVRETERKSIGLIHQDNSTDAMEEIKKIFTPEFRNRLDNIIWFDHLSTDVIHQVVDKFIVELQVQLDQKGVSLEVSQEARNWLAEKGYDRAMGARPMARVIQDNLKKPLANELLFGSLVDGGQVTVALDKEKNELTYGFQSAQKHKAEAAH
notes: ClpA, E. coli, AAA+ unfoldase with D1 and D2 modules; full-length with the M169T substitution that helps overexpression; also called ClpA6; WTClpA

Key:
[1] = target: B4; assay: cryo-EM structure; ClpA6 (4 µM), ClpP14 (8 µM), ClpS (13 µM) and YLFVQELA-GFP (13 µM) mixed in assembly buffer (50 mM HEPES-KOH pH 7.5, 300 mM KCl, 5 mM MgCl2, 2 mM TCEP, 4% glycerol, 2 mM ATPγS), 5 min at 25 °C; largest complex from Superdex-200 taken for single-particle cryo-EM; conditions: both partners purified
[2] = target: the molecule itself; assay: as above
[3] = target: B1; assay: fluorescence polarisation; fluorescence anisotropy at equilibrium; ClpS alone (1.25–30 µM) titrated against 100 nM …-fluorescein; 30 °C, HO buffer, 2 mM ATPγS; conditions: both partners purified
[4] = target: B2; assay: cryo-EM structure; ClpA6 (4 µM), ClpP14 (8 µM), ClpS (13 µM) and YLFVQELA-GFP (13 µM) mixed in assembly buffer (50 mM HEPES-KOH pH 7.5, 300 mM KCl, 5 mM MgCl2, 2 mM TCEP, 4% glycerol, 2 mM ATPγS), 5 min at 25 °C; largest complex from Superdex-200 taken for single-particle cryo-EM; conditions: both partners purified

Row | Binder | binding result [1] | stoichiometry N [2] | binding result [3] | stoichiometry N [4]
1 | B1 | binds | – | – | –
2 | B2 | binds | 14 | – | –
3 | B3 | – | – | binds | –
4 | B4 | – | 6 | – | 2 ClpA hexamers per ClpP 14-mer
